Results published in paper PMC3194004.
Read-outs that look alike come from different tables or passages of the source.

Experiments:
[1] = molecular target: HIV-1 full-length wild-type capsid protein (CA), residues 1-231 (HIV-1) (UniProt P03347); assay: dynamic light scattering
[2] = molecular target: HIV-1 full-length wild-type capsid protein (CA), residues 1-231 (HIV-1) (UniProt P03347); assay: dynamic light scattering; remark: listed apart in the source

HIV-1 full-length wild-type capsid protein (CA), residues 1-231 (from UniProt P03347 133-363) (natural protein)
stoichiometry N [1]: 2 | stoichiometry N [2]: 2
